Laboratory results from article PMC11551737, “Structural and functional insights into the interaction between the bacteriophage T4 DNA processing proteins gp32 and Dda” (Nucleic Acids Research, 2024).
Changes are numbered by the printed parent chain. In names and notes the source's numbering stands.

Assays:
[1] = target: T1, wild-type Dda/dT20 (Enterobacteria phage T4, UniProt P32270); type: binding, bacteriophage T4; conditions: SPR, Biacore T200, 25°C; wild-type Dda/dT20 on NTA chip; average of three experiments
T1 construct: His-tag; made in house
Procedure: These experiments were conducted at 25°C using a Biacore 3000 optical biosensor (Cytiva). […] The chip was primed in chelating buffer (10 mM HEPES pH 7.4, 150 mM NaCl, 50 μM EDTA, 0.005% Tween20) and was preconditioned at 10 μl/min with three 60 s injections of wash buffer (10 mM HEPES pH 8.3, 150 mM NaCl, 350 mM EDTA, 0.05% Tween20) and one 60 s injection of chelating buffer before being charged with a 60 s injection of 500 μM NiCl2 in chelating buffer. […] Any remaining active sites were blocked by Tris molecules in the binding analysis buffer (20 mM Tris-acetate pH 8.0, 150 mM NaCl, 10 mM magnesium acetate, 3 mM potassium glutamate, 1 mM TCEP, 0.05% Tween20, 10% glycerol). […] The data were processed, double-referenced and analyzed using the software package Scrubber2 (version 2.0c, BioLogic Software). The equilibrium dissociation constants (KD) were determined using steady-state analysis, specifically an equilibrium affinity analysis to fit the data to a 1:1 (Langmuir) interaction model.
These experiments were conducted at 25°C using a Biacore T200 optical biosensor (Cytiva) and NTA chip sensor S series; Cytiva. […] Also, the data were analyzed using the Biacore T200 Evaluation software package (version 3.1).

[2] = target: bacteriophage T4 gp32 single-stranded DNA-binding protein, full length, His-tagged (bacteriophage T4) (UniProt P03695); assay: AUC; sedimentation velocity, 20°C, 42 000 rpm; 20 mM Tris pH 7.0, 200 mM NaCl, 0.5 mM EDTA, 5 mM β-mercaptoethanol; gp32 at 11.10 μM
[3] = target: T2, bacteriophage T4 helicase Dda, wild type (bacteriophage T4) (UniProt P32270)
T2 sequence: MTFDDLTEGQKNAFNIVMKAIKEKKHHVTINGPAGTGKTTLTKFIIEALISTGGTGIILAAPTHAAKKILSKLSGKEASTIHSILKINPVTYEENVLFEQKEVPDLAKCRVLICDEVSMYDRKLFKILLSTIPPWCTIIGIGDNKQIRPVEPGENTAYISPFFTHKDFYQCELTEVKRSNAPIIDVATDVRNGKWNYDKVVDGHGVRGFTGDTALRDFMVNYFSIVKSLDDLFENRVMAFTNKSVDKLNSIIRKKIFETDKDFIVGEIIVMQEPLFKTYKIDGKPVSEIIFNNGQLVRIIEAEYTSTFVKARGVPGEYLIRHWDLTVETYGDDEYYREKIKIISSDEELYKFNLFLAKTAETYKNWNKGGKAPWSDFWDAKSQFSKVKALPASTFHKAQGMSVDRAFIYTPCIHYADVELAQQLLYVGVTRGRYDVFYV

[4] = target: T3, bacteriophage T4 helicase Dda, wild type (bacteriophage T4, UniProt P32270 1-439); assay: SPR; wild-type Dda bound to dT20
T3 chain: T2 sequence

[5] = target: T4, bacteriophage T4 helicase Dda, wild type (bacteriophage T4, UniProt P32270 1-439); assay: SPR; SPR analysis 2: Biacore T200, 25°C; wild-type Dda/dT20 immobilised on an NTA chip as in SPR analysis 1; peptides injected, 2-fold dilution series, 100 μM to 0.78 μM; steady-state analysis; conditions: both partners purified
T4 construct: Dda, SF1B helicase of bacteriophage T4, wild type; also called wild-type Dda
T4 sequence (looked up): T2 sequence

[6] = target: T5, bacteriophage T4 helicase Dda, ATPase deficient mutant K38A (bacteriophage T4, UniProt P32270 1-439, K38A); assay: SPR; SPR analysis 1: Biacore 3000, 25°C; His-tagged Dda-K38A/dT20 immobilised on an NTA chip by capture-coupling (~5800 RU); peptides injected, 4-fold dilution series, maximum 100 μM; 20 mM Tris-acetate pH 8.0, 150 mM NaCl, 10 mM magnesium acetate, 3 mM potassium glutamate, 1 mM TCEP, 0.05% Tween20, 10% glycerol; steady-state fit, 1:1 model; conditions: both partners purified
T5 construct: Dda, SF1B helicase of bacteriophage T4, active site point mutant K38A; called His-tagged in SPR analysis 1; theoretical mass printed as 52 046 Da; also called Dda-K38A; Dda–K38A
T5 sequence: T2 sequence with K38A

[7] = system: wild-type Dda; assay: Dda-dependent DNA unwinding assay with gp32 variants (fluorescein-quenched replication fork substrate, no annealing trap); type: biochemical, bacteriophage T4; conditions: 375 nM gp32 variant, 25 nM wild-type Dda, 25 nM substrate, 2.5 mM ATP, triplicate experiments; for Rate constant of product formation (single exponential fit): 5 mM Mg(OAc)2, pH 7.5, room temperature, fluorescein fluorescence; for Amplitude of the product formation curve (fluorescence): higher amplitude = more effective prevention of reannealing
Procedure: A partial duplex substrate mimicking a replication fork was prepared by mixing equimolar concentrations of the following oligonucleotides: loading strand - […]/36-FAM/, displaced strand - […], and leading strand - […] in 10 mM HEPES/1 mM EDTA. The sample was heated to 95°C for 5 min, followed by slowly cooling to room temperature. All concentrations are final, after mixing. ATP (2.5 mM), Mg(OAc)2 (5 mM) and gp32 (375 nM) in assay buffer (25 mM HEPES, pH 7.5, 10 mM KOAc, 0.1 mM EDTA, 2 mM β-mercaptoethanol, 1 mg/ml bovine serum albumin and 4 mM phosphoenol pyruvate) were mixed and added to wells in one row of a black 96-well plate. The reactions were initiated by adding 25 nM substrate, 25 nM wild-type Dda and 5 U/ml pyruvate kinase/lactate dehydrogenase in assay buffer with a multichannel pipette to the entire row simultaneously. Fluorescein fluorescence was measured 8 times per minute in a VICTOR Nivo Multimode Plate Reader (Perkin Elmer) at room temperature with excitation through a 480/30 nm bandpass filter and emission measured after a 530/30 nm bandpass filter.

Molecule: AATAAKKEDKVADDADAFNVDDF [A255E/L262A]
- Rmax [1]: 196 (+/- 12.6) RU

Molecule: AATAAKKADKEADDLDAANVDDF [V258E/F265A]
- Rmax [1]: 115 (+/- 5.88) RU

Molecule: bacteriophage T4 gp32 single-stranded DNA-binding protein, full length, His-tagged (from UniProt P03695 1-301) (natural protein)
- stoichiometry N [2]: 2

B1: gp32-B (21–301), gp32 that lacks the N-terminal region (domain or fragment)
chain: KGFSSEDKGEWKLKLDNAGNGQAVIRFLPSKNDEQAPFAILVNHGFKKNGKWYIETCSSTHGDYDSCPVCQYISKNDLYNTDNKEYSLVKRKTSYWANILVVKDPAAPENEGKVFKYRFGKKIWDKINAMIAVDVEMGETPVDVTCPWEGANFVLKVKQVSGFSNYDESKFLNQSAIPNIDDESFQKELFEQMVDLSEMTSKDKFKSFEELNTKFGQVMGTAVMGGAAATAAKKADKVADDLDAFNVDDFNTKTEDDFMSSSSGSSSSADDTDLDDLLNDL
- amplitude of the product formation curve (fluorescein fluorescence) in the Dda-dependent DNA unwinding assay without annealing trap; 375 nM gp32, 25 nM wild-type Dda, 25 nM substrate [3]: 200000

B2: gp32-A (1–254), gp32 that lacks the C-terminal region (domain or fragment)
chain: MFKRKSTAELAAQMAKLNGNKGFSSEDKGEWKLKLDNAGNGQAVIRFLPSKNDEQAPFAILVNHGFKKNGKWYIETCSSTHGDYDSCPVCQYISKNDLYNTDNKEYSLVKRKTSYWANILVVKDPAAPENEGKVFKYRFGKKIWDKINAMIAVDVEMGETPVDVTCPWEGANFVLKVKQVSGFSNYDESKFLNQSAIPNIDDESFQKELFEQMVDLSEMTSKDKFKSFEELNTKFGQVMGTAVMGGAAATAAKK
- amplitude of the product formation curve (fluorescein fluorescence) in the Dda-dependent DNA unwinding assay without annealing trap; 375 nM gp32, 25 nM wild-type Dda, 25 nM substrate [3]: 86000

B3: full-length gp32 variant A255E/L262A (natural protein)
chain: MFKRKSTAELAAQMAKLNGNKGFSSEDKGEWKLKLDNAGNGQAVIRFLPSKNDEQAPFAILVNHGFKKNGKWYIETCSSTHGDYDSCPVCQYISKNDLYNTDNKEYSLVKRKTSYWANILVVKDPAAPENEGKVFKYRFGKKIWDKINAMIAVDVEMGETPVDVTCPWEGANFVLKVKQVSGFSNYDESKFLNQSAIPNIDDESFQKELFEQMVDLSEMTSKDKFKSFEELNTKFGQVMGTAVMGGAAATAAKKEDKVADDADAFNVDDFNTKTEDDFMSSSSGSSSSADDTDLDDLLNDL
- amplitude of the product formation curve (fluorescein fluorescence) in the Dda-dependent DNA unwinding assay without annealing trap; 375 nM gp32, 25 nM wild-type Dda, 25 nM substrate [3]: 130000

B4: full-length gp32 variant V258E/F265A (natural protein)
chain: B3 chain with E255A, V258E, A262L, F265A
- amplitude of the product formation curve (fluorescein fluorescence) in the Dda-dependent DNA unwinding assay without annealing trap; 375 nM gp32, 25 nM wild-type Dda, 25 nM substrate [3]: 87000

Molecule: NTKTEDDFMSSSSGSSSSADDTDLDDLLNDL [gp32 C-terminal peptide 271–301]
- Kd [4]: 178 µM

B5: gp32 C-terminus peptide encompassing residues 248–270 (peptide)
peptide: AATAAKKADKVADDLDAFNVDDF
notes: also called gp32 C-terminal peptide; source: synthetic peptide
- binding result [5]: binds

B6: A255E/L262A mutant of gp32 peptide 248–270 (peptide, UniProt P03695 248-270, looked up)
peptide: AATAAKKEDKVADDADAFNVDDF
notes: probably a synthetic peptide like those of SPR analysis 1; also called mutant peptide A255E/L262A
- fold less binding than the wild-type peptide 248–270 [5]: ~10 fold
- Kd [4]: 504 µM

B7: V258E/F265A mutant of gp32 peptide 248–270 (peptide, UniProt P03695 248-270, looked up)
peptide: AATAAKKADKEADDLDAANVDDF
notes: probably a synthetic peptide like those of SPR analysis 1; also called mutant peptide V258E/F265A
- fold less binding than the wild-type peptide 248–270 [5]: ~10 fold
- Kd [4]: 492 µM

Molecule: AATAAKKADKVADDLDAFNVDDFNTKTEDDFMS (peptide, UniProt P03695 248-280, looked up, source: synthetic peptide) [gp32 C-terminal peptide 248–280]
- binding result [6]: binds

Molecule: AATAAKKADKVADDLDAFNVDDFNT (peptide, UniProt P03695 248-272, looked up, source: synthetic peptide) [gp32 C-terminal peptide 248–272]
- binding result [6]: binds

B8: gp32-B: gp32 lacking the N-terminal region (residues 21–301) (protein)
chain: B1 chain
modifications: left off: 6xHis, N-terminal, state not stated
- Rate constant of product formation (single exponential fit) [7]: 0.013 s⁻¹
- Amplitude of the product formation curve (fluorescence) [7]: 200 000

B9: gp32-A: gp32 lacking the C-terminal region (residues 1–254) (protein)
chain: B2 chain
modifications: left off: 6xHis, N-terminal, state not stated
- Rate constant of product formation (single exponential fit) [7]: 0.021 s⁻¹
- Amplitude of the product formation curve (fluorescence) [7]: 86 000

B10: gp32 A255E/L262A: full-length gp32 variant A255E/L262A designed to reduce gp32–Dda interactions (protein)
chain: B3 chain
modifications: left off: 6xHis, N-terminal, state not stated
- Rate constant of product formation (single exponential fit) [7]: 0.023 s⁻¹
- Amplitude of the product formation curve (fluorescence) [7]: 130 000

B11: gp32 V258E/F265A: full-length gp32 variant V258E/F265A designed to reduce gp32–Dda interactions (protein)
chain: B3 chain with E255A, V258E, A262L, F265A
modifications: left off: 6xHis, N-terminal, state not stated
- Rate constant of product formation (single exponential fit) [7]: 0.026 s⁻¹
- Amplitude of the product formation curve (fluorescence) [7]: 87 000
